Measurements as given in US9085636B2, “CETP fragments” (AFFIRIS AG, priority 2011, dated 2015).
No end group written: not given here.

Tests used:
[1] = tested on: respective peptides coupled to bovine serum albumin (BSA); test: Peptide ELISA: anti-peptide titers of sera from vaccinated mice; format: in vivo; conditions: median values (n = 5); Balb/c mice s.c. three times 15 μg net peptide coupled to KLH, Alum; titre = serum dilution at 50% of ODmax
Description: (§1) The peptides were conjugated via the heterobifunctional linker GMBS (4-Maleimidobutyric acid N-hydroxysuccinimide ester) to KLH (Keyhole Limpet Hemocyanin).
(§2) 15 μg of the peptides were suspended with aluminum hydroxide (end concentration of aluminum hydroxide was 0.2%). As buffer mannitol/phosphate was used.
(§3) 5 Balb/c mice were subcutaneously immunized. Mice had access to food and water ad libitum and were kept under a 12 h light/dark cycle. Age of mice at the beginning of experiments was usually 8 to 10 weeks.
(§4) Mice were injected three times in 2 week intervals with 15 μg of net peptide coupled to KLH and adsorbed to Alum as adjuvant in a volume of 1 ml in total via the s.c. route.
(§5) Blood was taken approximately 2 weeks after the final injection.
(§6) To determine the immunogenicity of the vaccines, 96-well Nunc-Maxisorb plates were coated with 1 μM of the respective peptides coupled to bovine serum albumin (BSA) in 0.1 M NaHCO3, pH 9.2-9.4. An irrelevant peptide was used as negative control. KLH was included as positive control and coated at a concentration of 1 μg/ml. Unspecific binding was blocked by incubation with blocking buffer (5% BSA in PBS). Appropriate serum dilutions were added to the wells, serially diluted 1:2 fold and incubated for approximately 1 hour at 37° C. On every ELISA plate a standard serum was included as internal control. Bound antibodies were detected by incubation with biotinylated goat anti-mouse IgG, followed by horseradish peroxidase coupled to Streptavidin. As substrate ABTS was added and the optical density (OD) at 405 nm was measured in a Microwell plate-reader. The titres were defined as the dilution of the serum where 50% of the ODmax in the assay are reached.

[2] = target: T1, CETP activity of human serum (Homo sapiens, UniProt P11597); test: CETP activity inhibition assay (Roar kit) with sera from vaccinated mice; format: biochemical; conditions: n=5 mice per group; human serum as CETP source mixed with same amount of serum from vaccinated mice
T1 construct: Human serum was used as CETP source; from tissue; host or cells: human serum
T1 sequence (P11597 18-493): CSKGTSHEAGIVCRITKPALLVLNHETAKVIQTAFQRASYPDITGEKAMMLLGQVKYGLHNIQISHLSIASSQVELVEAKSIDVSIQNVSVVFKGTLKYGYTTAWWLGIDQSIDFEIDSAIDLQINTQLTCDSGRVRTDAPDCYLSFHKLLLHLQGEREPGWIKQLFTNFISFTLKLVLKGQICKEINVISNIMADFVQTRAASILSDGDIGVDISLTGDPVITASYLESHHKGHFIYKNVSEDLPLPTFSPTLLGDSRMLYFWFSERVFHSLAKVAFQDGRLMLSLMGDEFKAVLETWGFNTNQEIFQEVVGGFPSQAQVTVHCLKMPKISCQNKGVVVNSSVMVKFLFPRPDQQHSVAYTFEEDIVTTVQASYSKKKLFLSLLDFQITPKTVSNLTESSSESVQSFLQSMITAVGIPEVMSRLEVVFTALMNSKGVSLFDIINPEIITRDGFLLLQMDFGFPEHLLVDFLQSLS
Description: as §3, §4, §5
CETP activity was determined with the Roar CETP activity assay kit (RB-CETP; Roar Biomedical) by measuring the transfer of a fluorescently labeled substrate according to the protocol provided by the manufacturer. […] Human serum was used as CETP source and was mixed with the same amount of serum from vaccinated mice together with donor and acceptor particles (components of the CETP activity assay kit).
Mouse sera containing CETP-inhibiting antibodies lead to a decrease of the signal in this assay. Sera from mice injected with irrelevant peptide served as negative control.

[3] = target: T2, recombinantly expressed human CETP N-terminally fused to GST (GST-CETP) (Homo sapiens, UniProt P11597); test: Protein ELISA: anti-protein titers of sera from vaccinated mice; format: in vivo, Balb/c mice; conditions: for anti-protein titers: median values (n = 5), Balb/c mice s.c. three times 15 μg net peptide coupled to KLH, Alum, GST-CETP ELISA, titre = serum dilution at 50% of ODmax
T2 construct: not only antibodies directed to the peptide itself but also to the mature CETP protein; GST (N); made in house
T2 sequence (P11597 18-493): T1 sequence (P11597 18-493)
Description: as §1, §2, §3, §4, §5, §6
The antibodies induced by the vaccination were tested for their ability to bind to recombinantly expressed human CETP N-terminally fused to GST (“GST-CETP”) using the protocol described under “peptide ELISA”.

| Substance | anti-peptide titers [1] | no. of mice with antibodies inhibiting CETP activity [2] | anti-protein titers [3] | formation of antibodies directed to mature CETP protein (in words) ([3]; vaccinated Balb/c mice, protein ELISA) |
| --- | --- | --- | --- | --- |
| 1 (YTTAWWLGIDQS) [compound 1] | 70,000 | 3 of 5 | 800 |  |
| 2 (KAMMLLGQV) [compound 2] | 66,000 |  | 0 |  |
| 3 (LHLQGEREPGWIKQ) [compound 3] | 97,000 |  | 50 |  |
| 4 (DEFKAVLETWG) [compound 4] | 140,000 |  | 0 |  |
| 5 (GFNTNQEIFQEVVGGFP) [compound 5] | 100,000 |  | 100 |  |
| 6 (ESIQSFLQSMITA) [compound 6] | 69,000 |  | 0 |  |
| 7 (YGYTTAWWLGIDQSID) [compound 7] | 33,000 | 3 of 5 | 500 |  |
| 8 (TTAWWLGIDQS) [compound 8] | 89,000 | 4 of 5 | 1,200 |  |
| 9 (TAWWLGIDQS) [compound 9] | 173,000 | 4 of 5 | 2,200 |  |
| 10 (AWWLGIDQS) [compound 10] | 191,000 | 5 of 5 | 1,700 |  |
| 11 (WWLGIDQS) [compound 11] | 330,000 | 5 of 5 | 1,100 |  |
| 12 (WLGIDQS) [compound 12] | 153,000 |  | 0 |  |
| 13 (YTTAWWLGIDQ) [compound 13] | 143,000 | 1 of 5 | 1,200 |  |
| 14 (YTTAWWLGID) [compound 14] | 630,000 | 1 of 5 | 600 |  |
| 15 (YTTAWWLGI) [compound 15] | 111,000 | 0 of 5 | 300 |  |
| 16 (YTTAWWLG) [compound 16] | 74,000 |  | 0 |  |
| 17 (YTTAWWL) [compound 17] | 94,000 |  | 0 |  |
| 18 (TTAWWLGIDQ) [compound 18] | 216,000 | 4 of 5 | 900 |  |
| 19 (TTAWWLGID) [compound 19] | 114,000 | 3 of 5 | 1,300 |  |
| 20 (TTAWWLGI) [compound 20] | 124,000 |  | 300 |  |
| 21 (TAWWLGI) [compound 21] | 99,000 |  | 0 |  |
| 22 (FPRPDQQHSV) [compound 22] | 229,000 |  | 0 |  |
| C-YTTAWWLGIDQS (CYTTAWWLGIDQS; also: conjugated to KLH carrier) [SEQ ID No. 1, CETP fragment AA101-112, N-terminal cysteine, conjugated to KLH] |  |  |  | leads to the formation of not only antibodies directed to the peptide itself but also to the mature CETP protein |
